The results in this text go back to US20250051437A1.

For assay [1], the target named is BT474 Cells. Briefly: KinExA using BT474 Cells.
The target of assay [2] is human cadherin-17 (CDH17), endogenously expressed on human cancer cell lines (LS513, SNU-C1, PaTu8988s, HPAF-II) (human) (UniProt Q12864). Briefly: indirect flow cytometry (iQue) on LS513 cells (CDH17+); secondary antibody only, background control. (In general: A flow cytometer gives signals particle by particle.)
The target is the same in assay [3]. Briefly: flow cytometry (iQue) on LS513 cells; secondary antibody only, background control.
The target in assay [4] is human CDH17-mGFP fusion protein overexpressed on HEK293T cells (clone G11) (human) (UniProt Q12864). Put plainly: flow cytometry (BD C6), secondary antibody alone on HEK293T CDH17 mGFP G11 cells; on HEK293T Parental: 507.66.
The target of assay [5] is human cadherin-17 (CDH17), endogenously expressed on human cancer cell lines (LS513, SNU-C1, PaTu8988s, HPAF-II) (human) (UniProt Q12864). Put plainly: flow cytometry (iQue) on PATU8988S cells; secondary antibody only, background control.
Assay [6] concerns the target mouse CDH17-mGFP fusion protein overexpressed on HEK293T cells (mouse) (UniProt Q9R100). Put plainly: flow cytometry (BD C6), secondary antibody alone on HEK293T Mouse CDH17 mGFP cells; on HEK293T Parental: 507.66.
In assay [7] the target is human CDH17-mGFP fusion protein overexpressed on HEK293T cells (clone G11) (human) (UniProt Q12864). Briefly: flow cytometry (iQue) on HEK293T CDH17 mGFP clone G11 (human); secondary antibody only, background control.
Assay [8] deals with human cadherin-17 (CDH17), endogenously expressed on human cancer cell lines (LS513, SNU-C1, PaTu8988s, HPAF-II) (human) (UniProt Q12864). Put plainly: flow cytometry (iQue) on SNUC1 cells; secondary antibody only, background control.
Assay [9] addresses monkey (crab-eating macaque) CDH17 fused to moxGFP, overexpressed on HEK293T cells (monkey (crab-eating macaque)). Briefly: flow cytometry (BD C6), secondary antibody alone on HEK293T Macaque CDH17 moxGFP cells; on HEK293T Parental: 507.66.
Assay [10] concerns the target rat CDH17 fused to moxGFP, overexpressed on HEK293T cells (rat) (UniProt P55281). Put plainly: flow cytometry (BD C6), secondary antibody alone on HEK293T Rat CDH17 moxGFP cells; on HEK293T Parental: 507.66.

Sequence of mouse CDH17-mGFP fusion protein overexpressed on HEK293T cells (mouse) (Q9R100 26-827): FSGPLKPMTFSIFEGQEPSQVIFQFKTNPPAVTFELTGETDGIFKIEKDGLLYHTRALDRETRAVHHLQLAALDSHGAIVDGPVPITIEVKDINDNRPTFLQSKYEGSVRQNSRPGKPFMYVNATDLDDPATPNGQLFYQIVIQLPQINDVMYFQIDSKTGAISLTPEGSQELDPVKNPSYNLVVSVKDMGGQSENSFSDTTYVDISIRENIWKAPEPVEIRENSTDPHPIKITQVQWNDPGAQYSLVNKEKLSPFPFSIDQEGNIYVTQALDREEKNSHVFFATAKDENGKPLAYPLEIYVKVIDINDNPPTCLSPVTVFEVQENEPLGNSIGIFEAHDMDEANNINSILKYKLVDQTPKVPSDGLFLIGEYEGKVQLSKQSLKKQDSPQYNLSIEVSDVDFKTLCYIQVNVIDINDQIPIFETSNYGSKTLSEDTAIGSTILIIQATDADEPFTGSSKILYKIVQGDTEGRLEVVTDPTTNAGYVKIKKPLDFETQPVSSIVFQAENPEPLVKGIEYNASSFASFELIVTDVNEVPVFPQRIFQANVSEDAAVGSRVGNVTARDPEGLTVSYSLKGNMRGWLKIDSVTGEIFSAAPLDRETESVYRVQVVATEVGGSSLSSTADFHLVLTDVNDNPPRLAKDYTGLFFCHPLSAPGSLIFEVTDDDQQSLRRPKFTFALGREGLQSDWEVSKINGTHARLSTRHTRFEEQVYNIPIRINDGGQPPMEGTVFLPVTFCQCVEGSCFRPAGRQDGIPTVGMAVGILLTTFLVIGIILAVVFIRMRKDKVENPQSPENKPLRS
Sequence of rat CDH17 fused to moxGFP, overexpressed on HEK293T cells (rat) (P55281 22-827): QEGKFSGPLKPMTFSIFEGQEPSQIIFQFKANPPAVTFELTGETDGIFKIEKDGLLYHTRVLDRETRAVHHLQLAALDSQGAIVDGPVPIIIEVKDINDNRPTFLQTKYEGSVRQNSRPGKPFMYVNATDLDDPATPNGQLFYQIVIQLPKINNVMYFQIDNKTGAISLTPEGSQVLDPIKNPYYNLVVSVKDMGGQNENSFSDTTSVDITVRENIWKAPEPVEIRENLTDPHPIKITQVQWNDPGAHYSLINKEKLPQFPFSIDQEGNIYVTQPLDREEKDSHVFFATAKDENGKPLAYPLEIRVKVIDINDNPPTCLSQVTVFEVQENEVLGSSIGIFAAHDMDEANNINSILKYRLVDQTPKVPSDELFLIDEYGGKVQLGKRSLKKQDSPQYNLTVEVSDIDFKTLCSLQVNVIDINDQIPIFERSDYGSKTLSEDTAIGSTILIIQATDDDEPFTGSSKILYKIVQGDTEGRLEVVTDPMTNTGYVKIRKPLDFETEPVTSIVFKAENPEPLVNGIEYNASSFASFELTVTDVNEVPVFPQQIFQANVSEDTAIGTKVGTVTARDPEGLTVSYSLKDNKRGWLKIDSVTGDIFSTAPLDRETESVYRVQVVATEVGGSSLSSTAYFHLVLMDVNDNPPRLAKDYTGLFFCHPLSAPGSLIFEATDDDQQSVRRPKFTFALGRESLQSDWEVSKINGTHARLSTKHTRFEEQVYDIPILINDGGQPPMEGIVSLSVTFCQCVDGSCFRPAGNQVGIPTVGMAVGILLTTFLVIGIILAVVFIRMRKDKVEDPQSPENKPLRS

As a reminder, the Kd is the concentration at which binding is half-saturated. Herceptin (antibody) displayed a Kd in assay [1] of 0.769 nM.

As for “AF647-anti-his tag 2° Ab (secondary antibody alone, control)”, in [2], the FL4-H was 33200.

For the substance “fluorochrome-labelled anti-human IgG secondary antibody alone (2nd Ab only control)”, the Antibody Binding Activity by Flow iQue worked out at 4900 in assay [3], 5930 in assay [5], 1960 in assay [7] and 3900 in assay [8]. Also, the FL4-H in assay [4] is 727; in assay [6], 740; in [9] it was 720; in [10], 633.
